Measurements: the nanobody polyreactivity screen of Harvey et al. (2022)

Test: yeast display, Sf9 membrane polyspecificity reagent, FACS + sequencing; frameworks hold sequencing errors
Method in brief: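 Nanobodies came from a synthetic yeast display library in Saccharomyces cerevisiae BJ5465, induced with galactose for 36–48 hours and stained for 1 hour at 4 °C with 10% biotinylated, detergent-solubilized Sf9 membrane reagent. Cells were enriched on streptavidin microbeads and then FACS-sorted, with low and high (top ~1%) gates set on anti-HA fluorescence for expression and streptavidin fluorescence for reagent binding. Each polyreactivity label reflects the gate a clone came from. Genes were amplified by colony PCR, sequenced by MiSeq 2 × 250 and filtered by CDR length.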

Sequence | polyreactivity (PSR sort gate)
QVQLVESGGGLVQAGGSLRLSCAASGGTLYIYAMGWDRQAPGKERELVAAIRGRGGSTYADSVKGRCTISRDNAKNTVYLQMNSLKPEDTAVYYCAASGIRYWLPYDYWGQGTQVTVSS | high polyreactivity
QVQLVESGGGLVQAGGSLRLSCAASGITFYRYAMGWSRQAPGKERELVAAITWSGGSTYYADSVKGRFTISRDNAKNTVYLQMNSLKPEDTAVYYCAAVLYSPDFFGNYDYWGQGTQVTVSS | low polyreactivity
QDQLVESGGGLVQAGGSLRLSCAASGGIFPAYAMGWYSQAPGKERELVASISANGGRTYYADSVKGRFTISRDNAKNTVYLQMNSLKPEDTAVYYCNKRWLHWSGYDYWGQGTQVTVSS | high polyreactivity
QVQLVDSGVGLVQAGGSLRLSCASSGSTFTINAMACYRHAPGKERELVAAISSGDSYYADSVKGRFTISRDNAKNTVYLQMNSLKPEDTTAVYYCAADSPGDSSKYDYWGQGTQVTVSS | low polyreactivity
QVQLVESGGGLVQAGGSLRLSCAASGSTFGGYTMGWYRQAPGKERELVADITSSGSTNYADSLKGRFTISRDNAKNTVYLQMNSLKPEDTAVYYCAVRTYPGRFWYWGVDMDYWGQGTQVTVSS | low polyreactivity
QVQLVESGGGLVQAGGSLRLSCAASGRIFYEYASGWYRQAPGKERELVAISTSGGNTYYADSVKGRFTISRDNAKNTVYLQMNSLKPDDTAVYYCAARLQYYPYYYWGQGTQVTVSS | high polyreactivity
QVQLVESVVGLVQAGGSLRLSCAASGRIFAYYAMGWYRQAPGKERELVAAISSSGGGTYYADSVKGRFTISRDNAKNTVYLQMNSLKPEDTAVYYCAKRVRRKYSVSHPYDYWGQGTQVTVSS | high polyreactivity
QVQLVESGGGLVQAGGSLRLSCAASGSIFNAYAMGWYRQAPGKERELVAAISKRTSYADSVKGRFTISRDNAKNTVYLQMNSLKPEDTAVYYCANEVDEPDGYEYDYWGQGTQVTVSS | low polyreactivity
QVQLVESGGVLVQAGGSLRVSCAASGGIFPRYTMGWSRQAPGKERELVASITRSGASTYYADSVKGRFTISRDKAKNTVYLPINSQKPEDTWFYYVISDVYVYSVTSHYTSSRLDYWGQGTQVTVSS | high polyreactivity
QVQLVESGGGLVQAGGSLRLSCAASGRTFYYNAMGWYRQAPGKERELVARITSSGGSTYYADSVKGRFTISRDNAKNTVYLQMNSLKPEDTAVYYCAAGRSRYLWFGRDFDYWGQGTQVTVSS | low polyreactivity
QVQLVESGGGLVQAGGSLRLSCAASGRTFSAYAMGWYRQAPGKERELVARITSVDSTNYADSVKRRFTISRDNAKNSVYLQINSLKPEDTAVYYCNATFGYPFVDYDDYWGQGTQVTVSS | low polyreactivity
QVQLVESGGGLVQAGGSLPLSCAASRRTLYTNTMGWYRQAPGKESELDAGISKRGGSTYYADSVKGRFTITRDTAKNTVYLQMNSRKPEDTAVYYCNAPVSYWSRFRSPIYEYWGQGTQVTVSS | high polyreactivity
QVQLVESGGGLVQAGGSLRLSCAASGGIFTQYVMGWYRQAPGKERELVAAINWSGGSTTYAYSVKGRFTISRDNAKNTVYLQMNSLKPEVTAVYYCAAYSYREFYYWGQGTQVTVSS | high polyreactivity
QVQLVESGGGLVQAGGSLRLSCAASGSIFEGYVMGWYRQAPGKERELVATISFSGGSTYYADSVKGRFTISRDNAKNTVYLQMNSLKPEDTAVYYCNALVYHTKGDYGYWGHGTQVTVSS | low polyreactivity
QVKLVESGAGLVQAGASLRLSCAASGLIFHQYAMGWYRQAPGKERELVAAITRSGTRTYYADSVKGRFTISRDNEKNTVYLQMNSLKPEDTAVYYCAAADTQGVSMDYWGQGTQVTVSS | high polyreactivity
QVQLVESGGGLVQAGGSLRLSCAASGFTLDWYVMGWYRQAPGKEREFVASIRYSGGSTYYADSVKGRFTISRDNAKNTVYLQMNRLKTEDTAVYYCAARTVTLSYLYYYWGQGTQVTVSS | high polyreactivity
